Results: patent US20120316071A1 (published 2012)
One block for each binder: values may come before it.

Columns and labels:
[1] = molecular target: T1, Recombinant Human DLL4 (R&D Systems Cat#1506-D4/CF) (human, UniProt Q9NR61 27-524); assay: ELISA titration, 3-fold dilutions from 20 nM Fab
T1 construct: bought recombinant protein; also called rHuman DLL4; delta-like protein 4

[2] = molecular target: T1, Recombinant Human DLL4 (R&D Systems …); assay: SPR
[3] = molecular target: T2, full-length human DLL4 expressed on the surface of CHO cells (human, UniProt Q9NR61 26-685); assay: competition, flow cytometry; 250 nM biotinylated Notch-Fc as competitor on CHO-DLL4 cells, streptavidin-PE
T2 construct: also called CHO-DLL4; DLL4-expressing CHO cells

[4] = molecular target: T3, Recombinant Human DLL4 (R&D Systems Cat#1506-D4/CF) (human, UniProt Q9NR61 27-524); assay: ECL (MSD) binding assay, immobilised DLL4, repeat experiment
T3 construct: Bought recombinant protein; also called delta-like protein 4; rHuman DLL4

[5] = molecular target: T4, rHuman Erythropoietin R/Fc Chimera, CF (R&D Systems Cat#963-ER) (human, UniProt P19235 25-250); assay: ECL Multispot (MSD) assay, antigen spotted on plate, 10 nM Fab;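 note: purified Fab bound to antigen spots for 1 h at 20 °C, then TAG detection antibody, electrochemiluminescence compared with each well's blank, ratio of 4 or more marks a hit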
T4 construct: Bought recombinant protein; also called EPO R; EPO R/Fc
T4 sequence (looked up): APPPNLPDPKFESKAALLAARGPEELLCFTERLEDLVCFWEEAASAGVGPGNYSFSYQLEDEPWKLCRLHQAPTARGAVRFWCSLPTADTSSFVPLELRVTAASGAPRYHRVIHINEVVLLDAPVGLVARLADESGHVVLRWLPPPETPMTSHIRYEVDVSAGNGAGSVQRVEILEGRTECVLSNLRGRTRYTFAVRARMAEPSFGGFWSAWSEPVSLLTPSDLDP

[6] = molecular target: T5, rHuman P-Cadherin/Fc Chimera, CF (R&D Systems Cat#861-PC) (human, UniProt P22223 108-654); assay: as above
T5 construct: Bought recombinant protein

[7] = molecular target: T3, Recombinant Human DLL4 (R&D Systems …); assay: as above
[8] = molecular target: T6, rHuman EGF R/Fc Chimera, CF (R&D Systems Cat#344-ER) (human, UniProt P00533 25-645); assay: as above
T6 construct: Bought recombinant protein

[9] = molecular target: T7, rHuman IGF-1 sR (insulin-like growth factor-1 soluble receptor), CF (R&D Systems Cat#391-GR) (human, UniProt P08069 31-932); assay: as above
T7 construct: Bought recombinant soluble receptor

[10] = molecular target: T8, rHuman ErbB2/Fc Chimera, CF (R&D Systems Cat#1129-ER) (human, UniProt P04626 23-652); assay: as above
T8 construct: Bought recombinant protein

[11] = molecular target: T9, rHuman CD44/Fc Chimera, CF (R&D Systems Cat#3660-CD) (human, UniProt P16070 21-220); assay: as above
T9 construct: Bought recombinant protein

[12] = molecular target: T10, rHuman HGF R/c-MET/Fc Chimera, CF (R&D Systems Cat#358-MT/CF) (human, UniProt P08581 25-932); assay: as above
T10 construct: Bought recombinant protein; also called HGF R/Fc
T10 sequence (P08581 25-932, change not shown): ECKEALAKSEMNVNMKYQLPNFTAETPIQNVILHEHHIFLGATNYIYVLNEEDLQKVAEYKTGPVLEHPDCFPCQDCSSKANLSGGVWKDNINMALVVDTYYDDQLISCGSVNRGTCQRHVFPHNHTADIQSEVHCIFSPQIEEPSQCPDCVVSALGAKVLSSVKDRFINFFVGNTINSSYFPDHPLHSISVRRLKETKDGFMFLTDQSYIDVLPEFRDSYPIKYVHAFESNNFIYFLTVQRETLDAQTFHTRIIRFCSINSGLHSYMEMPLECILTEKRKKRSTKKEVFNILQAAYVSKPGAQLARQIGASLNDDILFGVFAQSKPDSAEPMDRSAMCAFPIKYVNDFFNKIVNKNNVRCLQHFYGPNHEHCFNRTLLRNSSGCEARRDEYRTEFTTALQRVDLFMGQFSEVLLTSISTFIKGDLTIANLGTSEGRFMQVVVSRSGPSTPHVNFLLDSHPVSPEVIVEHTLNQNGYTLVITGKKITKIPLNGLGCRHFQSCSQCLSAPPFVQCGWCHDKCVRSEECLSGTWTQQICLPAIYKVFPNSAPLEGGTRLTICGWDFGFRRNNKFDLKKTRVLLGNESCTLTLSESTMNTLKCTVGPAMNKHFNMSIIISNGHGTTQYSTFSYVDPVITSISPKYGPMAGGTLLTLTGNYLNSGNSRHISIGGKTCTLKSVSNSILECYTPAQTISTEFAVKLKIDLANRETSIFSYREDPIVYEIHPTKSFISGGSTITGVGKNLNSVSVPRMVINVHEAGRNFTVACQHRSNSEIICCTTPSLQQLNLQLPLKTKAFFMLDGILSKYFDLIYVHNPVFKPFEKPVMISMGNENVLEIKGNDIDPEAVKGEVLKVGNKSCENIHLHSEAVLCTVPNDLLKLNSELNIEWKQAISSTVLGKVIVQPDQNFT

[13] = molecular target: T3, Recombinant Human DLL4 (R&D Systems …); assay: ECL (MSD) binding assay, DLL4 signal divided by blank, repeat experiment

B2: Fab H:APFF VLTH & L6_IGKJ1*01 S28N/S30D/S31H S52L/A55G (NDH LG) (Fab, V domains shown)
VH: QVQLVQSGAEVKKPGASVKVSCKASGYTFTSYYMHWVRQAPGQGLEWMGIVLPTGHSTSYAQKFQGRVTMTRDTSTSTVYMELSSLRSEDTAVYYCAREEYAPFSAEYFQFWGQGTLVTVSS
VL: EIVLTQSPATLSLSPGERATLSCRASQNVDHYLAWYQQKPGQAPRLLIYDALNRGTGIPARFSGSGSGTDFTLTISSLEPEDFAVYYCQQRSNWPPWTFGQGTKVEIKR
notes: Fab; also called H:APFF VLTH & L:NDH LG
fold binding affinity against the antibody mutants with heavy chain H:APFF ALTH [1]: ~10 fold

B5: Fab VH1-46_IGHD6-6*01_IGHJ1*01 S102A/S103P/S104F/H111F F29A & L6_IGKJ1*01 (Fab, V domains shown)
VH: QVQLVQSGAEVKKPGASVKVSCKASGYTATSYYMHWVRQAPGQGLEWMGIINPSGGSTSYAQKFQGRVTMTRDTSTSTVYMELSSLRSEDTAVYYCAREEYAPFSAEYFQFWGQGTLVTVSS
VL: not shown
notes: Fab as for m1 (CH1 with His6/Flag tags, kappa CL); also called APFF F29A
ECL signal [4]: 109000 | ECL signal [5]: 466 | ECL signal [6]: 276 | ECL signal [7]: 80700 | ECL signal [8]: 293 | ECL signal [9]: 315 | ECL signal [10]: 244 | ECL signal [11]: 414 | ECL signal [12]: 404 | Signal/Noise [13]: 238

B7: Fab VH5-51_IGHD5-18*01>3_IGHJ4*01 G100K/G104T/G24T/S28R/G35V (KT TRV) & V3-4_IGLJ1*01 (Fab, V domains shown)
VH: EVQLVQSGAEVKKPGESLKISCKTSGYRFTSYWIVWVRQMPGKGLEWMGIIYPGDSDTRYSPSFQGQVTISADKSISTAYLQWSSLKASDTAMYYCARRKYSYTYDYFDYWGQGTLVTVSS
VL: QTVVTQEPSFSVSPGGTVTLTCGLSSGSVSTSYYPSWYQQTPGQAPRTLIYSTNTRSSGVPDRFSGSILGNKAALTITGAQADDESDYYCVLYMGSGISYVFGTGTKVTVL
notes: Fab; also called H:KT TRV & L:wt; H:KT TRV & V3-4_IGLJ1*01
fold binding affinity against the parental Fab [2]: 130 fold

B8: Fab VH5-51_IGHD5-18*01>3_IGHJ4*01 G100K/G104T G24T/S28R/G35V & V3-4_IGLJ1*01 (Fab, V domains shown)
VH: EVQLVQSGAEVKKPGESLKISCKTSGYRFTSYWIVWVRQMPGKGLEWMGIIYPGDSDTRYSPSFQGQVTISADKSISTAYLQWSSLKASDTAMYYCARRKYSYTYDYFDYWGQGTLVTVSS
VL: QTVVTQEPSFSVSPGGTVTLTCGLSSGSVSTSYYPSWYQQTPGQAPRTLIYSTNTRSSGVPDRFSGSILGNKAALTITGAQADDESDYYCVLYMGSGISYVFGTGTKVTVL
notes: Fab; Constant parts come from Plasmid A (CH1, His6, Flag) and Plasmid E (lambda CL); also called H:KT TRV & L:wt; H:KT TRV & V3-4_IGLJ1*01
signal of biotinylated Notch-Fc bound to CHO-DLL4 cells at 2 nM Fab (read-out not given) [3]: 448 | signal of biotinylated Notch-Fc bound to CHO-DLL4 cells at 10 nM Fab (read-out not given) [3]: 244

B10: Fab VH5-51_IGHD5-18*01>3_IGHJ4*01 G100K/G104T G24T/S28R/G35V (H:KT TRV) & V3-4_IGLJ1*01 V91L/S96P (L:LP) (Fab, V domains shown)
VH: EVQLVQSGAEVKKPGESLKISCKTSGYRFTSYWIVWVRQMPGKGLEWMGIIYPGDSDTRYSPSFQGQVTISADKSISTAYLQWSSLKASDTAMYYCARRKYSYTYDYFDYWGQGTLVTVSS
VL: QTVVTQEPSFSVSPGGTVTLTCGLSSGSVSTSYYPSWYQQTPGQAPRTLIYSTNTRSSGVPDRFSGSILGNKAALTITGAQADDESDYYCLLYMGPGISYVFGTGTKVTVL
notes: Fab; also called H:KT TRV & L:LP
fold binding affinity against the parental Fab [2]: 1000 fold

B11: Fab VH5-51_IGHD5-18*01>3_IGHJ4*01 G100K/G104T G24T/S28R/G35V & V3-4_IGLJ1*01 V91L/S96P S52G (Fab, V domains shown)
VH: EVQLVQSGAEVKKPGESLKISCKTSGYRFTSYWIVWVRQMPGKGLEWMGIIYPGDSDTRYSPSFQGQVTISADKSISTAYLQWSSLKASDTAMYYCARRKYSYTYDYFDYWGQGTLVTVSS
VL: QTVVTQEPSFSVSPGGTVTLTCGLSSGSVSTSYYPSWYQQTPGQAPRTLIYGTNTRSSGVPDRFSGSILGNKAALTITGAQADDESDYYCLLYMGPGISYVFGTGTKVTVL
notes: Fab; Constant parts come from Plasmid A (CH1, His6, Flag) and Plasmid E (lambda CL); also called H:KT TRV & L:LP S52G
signal of biotinylated Notch-Fc bound to CHO-DLL4 cells at 2 nM Fab (read-out not given) [3]: 250 | signal of biotinylated Notch-Fc bound to CHO-DLL4 cells at 10 nM Fab (read-out not given) [3]: 190

Other lines, results leading:

fold binding affinity against the antibody mutants with heavy chain H:APFF ALTH [1]: ~10 fold
B1: Fab H:APFF LTH & L6_IGKJ1*01 S28N/S30D/S31H S52L/A55S (NDH LS) (Fab, V domains shown)
VH: QVQLVQSGAEVKKPGASVKVSCKASGYTFTSYYMHWVRQAPGQGLEWMGIILPTGHSTSYAQKFQGRVTMTRDTSTSTVYMELSSLRSEDTAVYYCAREEYAPFSAEYFQFWGQGTLVTVSS
VL: EIVLTQSPATLSLSPGERATLSCRASQNVDHYLAWYQQKPGQAPRLLIYDALNRSTGIPARFSGSGSGTDFTLTISSLEPEDFAVYYCQQRSNWPPWTFGQGTKVEIKR
notes: Fab; also called H:APFF LTH & L:NDH LS

fold binding affinity against the antibody mutants with heavy chain H:APFF ALTH [1]: ~10 fold | fold binding affinity against the parent Fab [2]: 430 fold
B3: Fab VH1-46_IGHD6-6*01_IGHJ1*01 S102A/S103P/S104F/H111F I51V/N52L/S54T/G56H (H:APFF VLTH) & L6_IGKJ1*01 S28N/S30D/S31H S52L/A55S (L:NDH LS) (Fab, V domains shown)
VH: QVQLVQSGAEVKKPGASVKVSCKASGYTFTSYYMHWVRQAPGQGLEWMGIVLPTGHSTSYAQKFQGRVTMTRDTSTSTVYMELSSLRSEDTAVYYCAREEYAPFSAEYFQFWGQGTLVTVSS
VL: EIVLTQSPATLSLSPGERATLSCRASQNVDHYLAWYQQKPGQAPRLLIYDALNRSTGIPARFSGSGSGTDFTLTISSLEPEDFAVYYCQQRSNWPPWTFGQGTKVEIKR
notes: Fab; also called H:APFF VLTH & L:NDH LS

signal of biotinylated Notch-Fc bound to CHO-DLL4 cells at 2 nM Fab (read-out not given) [3]: 117 | signal of biotinylated Notch-Fc bound to CHO-DLL4 cells at 10 nM Fab (read-out not given) [3]: 30
B4: Fab VH1-46_IGHD6-6*01_IGHJ1*01 S102A/S103P/S104F/H111F I51V/N52L/S54T/G56H & L6_IGKJ1*01 S28N/S30D/S31H S52L/A55S (Fab, V domains shown)
VH: QVQLVQSGAEVKKPGASVKVSCKASGYTFTSYYMHWVRQAPGQGLEWMGIVLPTGHSTSYAQKFQGRVTMTRDTSTSTVYMELSSLRSEDTAVYYCAREEYAPFSAEYFQFWGQGTLVTVSS
VL: EIVLTQSPATLSLSPGERATLSCRASQNVDHYLAWYQQKPGQAPRLLIYDALNRSTGIPARFSGSGSGTDFTLTISSLEPEDFAVYYCQQRSNWPPWTFGQGTKVEIKR
notes: Fab; Constant parts come from Plasmid A (CH1, His6, Flag) and Plasmid C (kappa CL); also called H:APFF VLTH & L:NDH LS

fold binding affinity against the antibody mutants with heavy chain H:APFF ALTH [1]: ~10 fold
B6: Fab H:APFF VLTH & L6_IGKJ1*01 S28N/S30D/S31H (NDH) (Fab, V domains shown)
VH: QVQLVQSGAEVKKPGASVKVSCKASGYTFTSYYMHWVRQAPGQGLEWMGIVLPTGHSTSYAQKFQGRVTMTRDTSTSTVYMELSSLRSEDTAVYYCAREEYAPFSAEYFQFWGQGTLVTVSS
VL: EIVLTQSPATLSLSPGERATLSCRASQNVDHYLAWYQQKPGQAPRLLIYDASNRATGIPARFSGSGSGTDFTLTISSLEPEDFAVYYCQQRSNWPPWTFGQGTKVEIKR
notes: Fab; also called H:APFF VLTH & L:NDH

fold binding affinity against the parental Fab [2]: 1000 fold
B9: Fab VH5-51_IGHD5-18*01>3_IGHJ4*01 G100K/G104T G24T/S28R/G35V (H:KT TRV) & V3-4_IGLJ1*01 V91L/S96P S52G (L:LP S52G) (Fab, V domains shown)
VH: EVQLVQSGAEVKKPGESLKISCKTSGYRFTSYWIVWVRQMPGKGLEWMGIIYPGDSDTRYSPSFQGQVTISADKSISTAYLQWSSLKASDTAMYYCARRKYSYTYDYFDYWGQGTLVTVSS
VL: QTVVTQEPSFSVSPGGTVTLTCGLSSGSVSTSYYPSWYQQTPGQAPRTLIYGTNTRSSGVPDRFSGSILGNKAALTITGAQADDESDYYCLLYMGPGISYVFGTGTKVTVL
notes: Fab; also called H:KT TRV & L:LP S52G
